Measured values taken from patent publication US20130330328A1 (AstraZeneca / MedImmune, published 2013).
Each block holds one molecule with its values, some of them ahead of it.

Tests used:
[1] = molecular target: human CD20 (human) (UniProt P11836); assay: flow cytometry, direct binding to Granta-519 (NHL/MCL) cells, labeled goat anti-human secondary
[2] = molecular target: human CD20 (human) (UniProt P11836); assay: flow cytometry, direct binding to Namalwa (Burkitt) cells, labeled goat anti-human secondary
[3] = molecular target: human CD20 (human) (UniProt P11836); assay: flow cytometry, direct binding to Raji (Burkitt) cells, labeled goat anti-human secondary
[4] = molecular target: human CD20 (human) (UniProt P11836); assay: flow cytometry, direct binding to Farage (DLCL) cells, labeled goat anti-human secondary
[5] = molecular target: human CD20 (human) (UniProt P11836); assay: flow cytometry, direct binding to Karpas-422 (NHL) cells, labeled goat anti-human secondary
[6] = molecular target: human CD20 (human) (UniProt P11836); assay: cell-based or functional assay
[7] = molecular target: human CD20 (human) (UniProt P11836); assay: flow cytometry, direct binding to Toledo (DLCL) cells, labeled goat anti-human secondary
[8] = molecular target: human CD20 (human) (UniProt P11836); assay: flow cytometry, direct binding to Nalm-6 (ALL) cells, labeled goat anti-human secondary
[9] = molecular target: human CD20 (human) (UniProt P11836); assay: flow cytometry, direct binding to JVM-13 (CLL) cells, labeled goat anti-human secondary
[10] = molecular target: T1, human CD19 (human, UniProt P15391 20-556); assay: cell-based or functional assay
T1 sequence (looked up): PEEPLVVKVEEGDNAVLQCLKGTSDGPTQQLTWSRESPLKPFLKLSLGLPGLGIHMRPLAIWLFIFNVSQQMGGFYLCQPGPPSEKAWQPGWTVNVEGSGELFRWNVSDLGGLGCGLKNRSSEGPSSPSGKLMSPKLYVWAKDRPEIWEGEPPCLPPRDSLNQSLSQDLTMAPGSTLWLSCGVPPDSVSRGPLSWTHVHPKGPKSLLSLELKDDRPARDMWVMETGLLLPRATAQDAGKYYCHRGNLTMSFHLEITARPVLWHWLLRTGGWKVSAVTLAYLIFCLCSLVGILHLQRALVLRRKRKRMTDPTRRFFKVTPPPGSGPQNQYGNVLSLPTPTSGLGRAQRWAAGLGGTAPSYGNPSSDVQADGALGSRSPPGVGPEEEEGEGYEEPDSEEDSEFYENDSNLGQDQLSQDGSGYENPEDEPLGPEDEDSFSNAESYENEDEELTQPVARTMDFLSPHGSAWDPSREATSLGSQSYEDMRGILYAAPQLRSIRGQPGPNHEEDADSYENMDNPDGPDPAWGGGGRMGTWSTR

human CD20 (human), sequence (P11836 whole entry): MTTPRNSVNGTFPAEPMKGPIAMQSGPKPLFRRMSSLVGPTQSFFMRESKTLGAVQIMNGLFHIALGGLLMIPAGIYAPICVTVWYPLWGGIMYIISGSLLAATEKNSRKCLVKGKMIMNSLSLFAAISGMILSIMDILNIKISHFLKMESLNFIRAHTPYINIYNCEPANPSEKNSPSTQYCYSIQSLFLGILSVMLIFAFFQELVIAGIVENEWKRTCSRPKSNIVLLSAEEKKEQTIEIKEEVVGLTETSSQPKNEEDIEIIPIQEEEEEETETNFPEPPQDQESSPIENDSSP

- MFI at 1 µg/ml [1]: 403 MFI
- MFI at 1 µg/ml [2]: 298 MFI
- MFI at 1 µg/ml [3]: 823 MFI
- MFI at 1 µg/ml [4]: 581 MFI
- MFI at 1 µg/ml [5]: 45 MFI
- ADCC EC50 [ng/ml], DB (DLCL) cells [6]: 0.24 ng/mL
- ADCC EC50 [ng/ml], Daudi (Burkitt) cells [6]: 0.041 ng/mL
- ADCC EC50 [ng/ml], Farage (DLCL) cells [6]: 0.0113 ng/mL
- ADCC EC50 [ng/ml], JVM-2 (CLL) cells [6]: 0.0586 ng/mL
- ADCC EC50 [ng/ml], JVM-13 (CLL) cells [6]: 0.0317 ng/mL
- ADCC EC50 [ng/ml], Karpas-1106P cells [6]: 0.0137 ng/mL
- ADCC EC50 [ng/ml], MeC2 (CLL) cells [6]: 0.007 ng/mL
- ADCC EC50 [ng/ml], RL (NHL) cells [6]: 0.0296 ng/mL
- ADCC EC50 [ng/ml], Raji (Burkitt) cells [6]: 0.008 ng/mL
- ADCC EC50 [ng/ml], Toledo (DLCL) cells [6]: 0.0319 ng/mL
- EC50, FACS-based ADCC assay with patient CLL samples [6]: 0.639 to 0.682 nM
- MFI at 1 µg/ml [7]: 312 MFI
- MFI at 1 µg/ml [8]: 26 MFI
- MFI at 1 µg/ml [9]: 60 MFI
Molecule: rituximab (antibody)
- % max. cell kill at 10 ug/ml, DB (DLCL) cells [6]: 46%
- % max. cell kill at 10 ug/ml, Daudi (Burkitt) cells [6]: 51%
- % max. cell kill at 10 ug/ml, Farage (DLCL) cells [6]: 54%
- % max. cell kill at 10 ug/ml, JVM-2 (CLL) cells [6]: 49%
- % max. cell kill at 10 ug/ml, JVM-13 (CLL) cells [6]: 50%
- % max. cell kill at 10 ug/ml, Karpas-422 (NHL) cells [6]: 5%
- % max. cell kill at 10 ug/ml, MeC2 (CLL) cells [6]: 42%
- % max. cell kill at 10 ug/ml, Nalm-6 (ALL) cells [6]: 14%
- % max. cell kill at 10 ug/ml, Namalwa (Burkitt) cells [6]: 7%
- % max. cell kill at 10 ug/ml, Raji (Burkitt) cells [6]: 40%
- % max. cell kill at 10 ug/ml, Toledo (DLCL) cells [6]: 55%

- ADCC EC50 [ng/ml], Daudi (Burkitt) cells [10]: 0.0031 ng/mL
- ADCC EC50 [ng/ml], Farage (DLCL) cells [10]: 0.0141 ng/mL
- ADCC EC50 [ng/ml], JVM-2 (CLL) cells [10]: 0.188 ng/mL
- ADCC EC50 [ng/ml], JVM-13 (CLL) cells [10]: 0.0368 ng/mL
- ADCC EC50 [ng/ml], Karpas-422 (NHL) cells [10]: 0.0181 ng/mL
- ADCC EC50 [ng/ml], Karpas-1106P cells [10]: 0.009 ng/mL
- ADCC EC50 [ng/ml], MeC2 (CLL) cells [10]: 0.0039 ng/mL
- ADCC EC50 [ng/ml], Nalm-6 (ALL) cells [10]: 0.0199 ng/mL
- ADCC EC50 [ng/ml], Namalwa (Burkitt) cells [10]: 0.012 ng/mL
- ADCC EC50 [ng/ml], Oci-LY19 (DLCL) cells [10]: 0.0163 ng/mL
- ADCC EC50 [ng/ml], RL (NHL) cells [10]: 0.0073 ng/mL
- ADCC EC50 [ng/ml], Raji (Burkitt) cells [10]: 0.003 ng/mL
- ADCC EC50 [ng/ml], Toledo (DLCL) cells [10]: 0.0075 ng/mL
B1: afucosylated anti-CD19 mAb 16C4 (16C4-afuc) (antibody, IgG1, V domains shown)
VH: EVQLVESGGGLVQPGGSLRLSCAASGFTFSSSWMNWVRQAPGKGLEWVGRIYPGDGDTNYNVKFKGRFTISRDDSKNSLYLQMNSLKTEDTAVYYCARSGFITTVRDFDYWGQGTLVTVSS
VL: EIVLTQSPDFQSVTPKEKVTITCRASESVDTFGISFINWFQQKPDQSPKLLIHEASNQGSGVPSRFSGSGSGTDFTLTINSLEAEDAATYYCQQTKEVPFTFGGGTKVEIK
